Patent US20210301005A1 (Genentech, published 2021)
Read-outs that look alike come from different tables or passages of the source.

Key:
[1] = biological target: T1, human TGFβ3, mature dimeric form (human, UniProt P10600 301-412); experiment: SPR
T1 construct: Peprotech, expressed in E. coli; also called TGFb3
T1 sequence: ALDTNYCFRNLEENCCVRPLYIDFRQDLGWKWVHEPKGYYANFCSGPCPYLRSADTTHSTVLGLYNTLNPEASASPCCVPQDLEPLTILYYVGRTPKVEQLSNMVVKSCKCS

[2] = biological target: T2, human TGFβ1, mature receptor-binding domain (human, UniProt P01137 279-390); experiment: SPR
T2 construct: Peprotech; also called TGFb1

[3] = biological target: T3, human TGFβ2, mature receptor-binding domain (human, UniProt P09858 303-414 (pig entry), The mature TGFβ2 is a disulfide-linked homodimer of this 112-residue chain. The 4A11 epitope spans both monomers (p-1207).); experiment: SPR
T3 construct: Peprotech; also called TGFb2
T3 sequence: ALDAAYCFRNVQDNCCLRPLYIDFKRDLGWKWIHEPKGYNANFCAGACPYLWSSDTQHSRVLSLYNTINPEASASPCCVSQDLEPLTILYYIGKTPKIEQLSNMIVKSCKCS

[4] = biological target: T1, human TGFβ3, mature dimeric form; experiment: cell-based or functional assay
[5] = biological target: T2, human TGFβ1, mature receptor-binding …; experiment: cell-based or functional assay
[6] = biological target: T3, human TGFβ2, mature receptor-binding …; experiment: cell-based or functional assay
[7] = biological target: T1, human TGFβ3, mature dimeric form; experiment: BIAcore T200
Protocol: (§1) For binding affinity determinations of all humanized 2A10 antibodies, Surface Plasmon Resonance (SPR) measurement with a BIAcore™-T200 instrument was used. Briefly, series S CM5 biosensor chip with protein A was first applied to capture each humanized 2A10 variant to achieve approximately 100 response units (RU) on each flow cell, following by injection of 3-fold serial dilutions of human TGFβ1, TGFβ2 or TGFβ3 (0.02 nM to 5 nM) in HBS-EP buffer (0.01M HEPES pH 7.4, 0.15M NaCl, 3 mM EDTA and 0.05% v/v surfactant P20) at 25° C. with a flow rate of 50 μl/min for kinetics measurement. Association rates (ko.) and dissociation rates (koff) were calculated using a simple one-to-one Langmuir binding model (BIAcore T200 evaluation software version 2.0) to determine the equilibrium dissociation constant (KD), which was calculated as the ratio koff/kₒₙ.
(§2) Binding affinity determinations of all humanized 4A11 antibodies were performed using SPR measurement with a BIAcore™-T200 instrument, as described above in Example 6 ([…]).

[8] = biological target: T2, human TGFβ1, mature receptor-binding …; experiment: BIAcore T200
Protocol: as §1, §2

[9] = biological target: T3, human TGFβ2, mature receptor-binding …; experiment: BIAcore T200
Protocol: as §1, §2

[10] = biological target: T1, human TGFβ3, mature dimeric form; experiment: cell-based or functional assay; remark: listed apart in the source
[11] = biological target: T2, human TGFβ1, mature receptor-binding …; experiment: cell-based or functional assay; remark: listed apart in the source
[12] = biological target: T3, human TGFβ2, mature receptor-binding …; experiment: cell-based or functional assay; remark: listed apart in the source
[13] = biological target: T1, human TGFβ3, mature dimeric form; experiment: cell-based or functional assay; remark: listed apart in the source
[14] = biological target: T2, human TGFβ1, mature receptor-binding …; experiment: cell-based or functional assay; remark: listed apart in the source
[15] = biological target: T3, human TGFβ2, mature receptor-binding …; experiment: cell-based or functional assay; remark: listed apart in the source
[16] = biological target: T1, human TGFβ3, mature dimeric form; experiment: BIAcore T200; remark: listed apart in the source
Protocol: as §1, §2

[17] = biological target: T3, human TGFβ2, mature receptor-binding …; experiment: BIAcore T200; remark: listed apart in the source
Protocol: as §1, §2

[18] = biological target: T1, human TGFβ3, mature dimeric form; experiment: cell-based or functional assay; remark: listed apart in the source
[19] = biological target: T2, human TGFβ1, mature receptor-binding …; experiment: cell-based or functional assay; remark: listed apart in the source
[20] = biological target: T3, human TGFβ2, mature receptor-binding …; experiment: cell-based or functional assay; remark: listed apart in the source
[21] = biological target: T1, human TGFβ3, mature dimeric form; experiment: BIAcore T200; remark: listed apart in the source
Protocol: as §1, §2

[22] = biological target: T2, human TGFβ1, mature receptor-binding …; experiment: BIAcore T200; remark: listed apart in the source
Protocol: as §1, §2

[23] = biological target: T3, human TGFβ2, mature receptor-binding …; experiment: BIAcore T200; remark: listed apart in the source
Protocol: as §1, §2

[24] = biological target: T1, human TGFβ3, mature dimeric form; experiment: cell-based or functional assay; remark: listed apart in the source
[25] = biological target: T2, human TGFβ1, mature receptor-binding …; experiment: cell-based or functional assay; remark: listed apart in the source
[26] = biological target: T3, human TGFβ2, mature receptor-binding …; experiment: cell-based or functional assay; remark: listed apart in the source
[27] = biological target: T1, human TGFβ3, mature dimeric form; experiment: BIAcore T200; remark: listed apart in the source
Protocol: as §1

[28] = biological target: T3, human TGFβ2, mature receptor-binding …; experiment: BIAcore T200; remark: listed apart in the source
Protocol: as §1

T2 sequence (P01137 279-390 limits assumed): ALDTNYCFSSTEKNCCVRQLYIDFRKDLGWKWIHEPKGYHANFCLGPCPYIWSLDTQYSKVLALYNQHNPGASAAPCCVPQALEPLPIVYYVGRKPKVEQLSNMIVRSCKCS

B1: 1D11 (antibody, V domains shown)
VH: QVQLQQSGPELVRPGASVKLSCKASGYIFITYWMNWVKQRPGQGLEWIGQIFPASGSTNYNEMFEGKATLTVDTSSSTAYMQLSSLTSEDSAVYYCARGDGNYALDAMDYWGQGTSVTVSS
VL: DIVLTQSPASLAVSLGQRATISCRASESVDSYGNSFMHWYQQKSGQPPKLLIYLASNLESGVPARFSGSGSRTDFTLTIDPVEADDAATYYCQQNNEDPLTFGAGTKLEIK
notes: also called pan-TGFβ antibody 1D11
[1]
  Kd: 0.007 nM
[2]
  Kd: 0.038 nM
[3]
  Kd: 0.009 nM
[4]
  Blocking IC50: 0.04 nM
[5]
  Blocking IC50: 0.5 nM
[6]
  Blocking IC50: 3.6 nM

B2: h4A11.v7 (antibody, human IgG1, kappa, N297G)
heavy: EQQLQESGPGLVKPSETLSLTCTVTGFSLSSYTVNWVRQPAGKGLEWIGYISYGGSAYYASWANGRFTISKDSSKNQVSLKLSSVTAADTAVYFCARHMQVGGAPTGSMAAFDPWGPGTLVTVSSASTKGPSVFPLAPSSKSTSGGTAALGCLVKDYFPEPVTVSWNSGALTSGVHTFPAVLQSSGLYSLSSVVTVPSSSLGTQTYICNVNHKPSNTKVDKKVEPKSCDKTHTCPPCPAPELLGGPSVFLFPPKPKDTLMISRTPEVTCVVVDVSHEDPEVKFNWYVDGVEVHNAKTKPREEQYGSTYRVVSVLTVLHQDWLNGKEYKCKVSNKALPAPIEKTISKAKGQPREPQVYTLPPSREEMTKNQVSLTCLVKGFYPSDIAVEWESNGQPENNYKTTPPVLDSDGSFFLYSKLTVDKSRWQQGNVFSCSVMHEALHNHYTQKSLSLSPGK
light: EAVLTQSPGTLSLSPGERATLSCQSSQSVYNNNYLSWFQQKPGQPPRLLIYGASTLTSGVPDRFSGSGSGTDFTLTISRLEPEDFAVYYCAGGYSGSSDKYAFGGGTKVEIKRTVAAPSVFIFPPSDEQLKSGTASVVCLLNNFYPREAKVQWKVDNALQSGNSQESVTEQDSKDSTYSLSSTLTLSKADYEKHKVYACEVTHQGLSSPVTKSFNRGEC
[7]
  Kd: 0.0097 nM
[8]
  Kd: > 5 nM
[9]
  Kd: 0.0063 nM
[10]
  HEKBlue TGFβ blocking IC50: 0.03 nM
[11]
  HEKBlue TGFβ blocking IC50: > 200 nM
[12]
  HEKBlue TGFβ blocking IC50: 0.09 nM
[13]
  HEKBlue TGFβ blocking IC50: 0.03 nM
[14]
  HEKBlue TGFβ blocking IC50: > 200 nM
[15]
  HEKBlue TGFβ blocking IC50: 0.09 nM
[16]
  Kd: 0.0097 nM
[17]
  Kd: 0.0063 nM
[18]
  HEKBlue TGFβ blocking IC50: 0.03 nM
[19]
  HEKBlue TGFβ blocking IC50: > 200 nM
[20]
  HEKBlue TGFβ blocking IC50: 0.09 nM
[21]
  Kd: 0.0097 nM
[22]
  Kd: > 5 nM
[23]
  Kd: 0.0063 nM

B3: h2A10.v4 (antibody, human IgG1, kappa, N297G, V domains shown)
VH: EVQLLESGGGLVQPGGSLRLSCAASGFDFNSYGMSWVRQAPGKGLELVSDIVSKTYNYATYYSDSVKDRFTISRDDSKNTLYLQMNSLRAEDTAVYYCTVAPGGSFDYWGQGTLVTVSS
VL: DIQLTQSPSSLSASVGDRVTITCRASQSVSISRFNLMHWYQQKPGKAPKLLIYRASNLASGVPSRFSGSGSGTDFTLTISSLQPEDFATYYCQHSRESPWTFGGGTKVEIKR
notes: human IgG1
[24]
  HEKBlue TGFβ blocking IC50: 0.01 nM
[25]
  HEKBlue TGFβ blocking IC50: > 200 nM
[26]
  HEKBlue TGFβ blocking IC50: > 200 nM
[27]
  Kd: 0.0019 nM
[28]
  Kd: 0.3 nM

B4: 21D1 (antibody, V domains shown)
VH: QVQLVQSGAEVKKPGASVKVSCKASGYTFTDYNIHWVRQAPGQGLEWMGYIYPYDGETGYNQKFKSRVTMTTDTSTSTAYMELRSLRSDDTAVYYCARGYRWFAYWGQGTLVTVSS
VL: DIQMTQSPSSLSASVGDRVTITCRASSSVPYMHWFQQKPGKAPKSLIYATSNPAYGVPSRFSGSGSGTDFTLTISSLQPEDFATYYCQQWDLNPPAFGQGTKLEIKR
[2]
  Kd: 0.008 nM
[4]
  Blocking IC50: > 200 nM
[5]
  Blocking IC50: 0.013 nM
[6]
  Blocking IC50: > 200 nM
